Experimental data as given in paper PMC4368505 (Nature, 2015).

T1: Drosophila Orc3 (amino acid residues 47-721) of the trimmed ORC core (Drosophila, UniProt Q7K2L1 47-721)
T1 sequence (looked up): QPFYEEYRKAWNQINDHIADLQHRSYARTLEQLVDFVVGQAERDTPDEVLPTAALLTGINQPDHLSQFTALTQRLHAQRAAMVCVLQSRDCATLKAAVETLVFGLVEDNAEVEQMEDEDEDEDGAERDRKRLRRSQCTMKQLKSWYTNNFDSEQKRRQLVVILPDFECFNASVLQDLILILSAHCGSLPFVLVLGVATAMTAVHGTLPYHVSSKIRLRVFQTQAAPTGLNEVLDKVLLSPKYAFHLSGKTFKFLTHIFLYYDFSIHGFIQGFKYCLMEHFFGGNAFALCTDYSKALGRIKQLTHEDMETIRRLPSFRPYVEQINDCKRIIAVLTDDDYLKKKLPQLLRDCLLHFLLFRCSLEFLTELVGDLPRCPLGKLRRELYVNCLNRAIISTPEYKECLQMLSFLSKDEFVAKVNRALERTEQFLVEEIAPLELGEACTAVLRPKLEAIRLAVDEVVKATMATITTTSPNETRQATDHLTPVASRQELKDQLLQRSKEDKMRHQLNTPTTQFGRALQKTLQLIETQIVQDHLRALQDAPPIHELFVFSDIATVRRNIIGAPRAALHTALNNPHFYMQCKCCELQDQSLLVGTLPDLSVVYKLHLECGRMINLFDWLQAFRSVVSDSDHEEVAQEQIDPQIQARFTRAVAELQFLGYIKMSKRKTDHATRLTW

B1: Drosophila Orc2 (amino acid residues 266-618) of the trimmed ORC core (domain or fragment, UniProt Q24168 266-618, looked up)
chain: QSARAKKSNEFVPESDGYFHSHASSKILTSDHTLDRLKNPRLAADRVFSLLSEIKTSAEHEGSINAIMEEYRSYFPKWMCILNEGFNILLYGLGSKHQLLQSFHREVLHKQTVLVVNGFFPSLTIKDMLDSITSDILDAGISPANPHEAVDMIEEEFALIPETHLFLIVHNLDGAMLRNVKAQAILSRLARIPNIHLLASIDHINTPLLWDQGKLCSFNFSWWDCTTMLPYTNETAFENSLLVQNSGELALSSMRSVFSSLTTNSRGIYMLIVKYQLKNKGNATYQGMPFRDLYSSCREAFLVSSDLALRAQLTEFLDHKLVKSKRSVDGSEQLTIPIDGALLQQFLEEQEKK
B2: Drosophila Orc1 (amino acid residues 533-924) of the trimmed ORC core (domain or fragment, UniProt O16810 533-924, looked up)
chain: SPSMQQRTDLPAKDSSKSELQLAREQLHVSVVPKSLPCREREFENIYAFLEGKIQDQCGGCMYVSGVPGTGKTATVTGVIRTLQRMAKQNELPAFEYLEINGMRLTEPRQAYVQIYKQLTGKTVSWEQAHALLEKRFTTPAPRRVTTVLLVDELDILCNRRQDVVYNLLDWPTKSAAKLVVVTIANTMDLPERLLMGKVTSRLGLTRLTFQPYSHKQLQEIVTARLGGSETFKGEAVQLVARKVAAVSGDARRALDICRRATEIADTAAVKCVTMLHVQQALAEMIASAKVQAIRNCSRMEQIFLQAIAAEVTRTGVEETTFMGVYQQVETIAAFMGVTFPPPGRALRLCSKLGAERLIISEHSRNDLFQKILLNVSADDIHYALRVEEMVN
B3: Drosophila Orc5 (amino acid residues 1-460) (natural protein, UniProt Q24169 1-460, looked up)
chain: MEAICSSLEPLFPCREAAIETLGELIGDSSETYPSAIYLFGHSGTGKTALTRAFLKECGKRQNVRTAHLNAIECYTTKIMLEILLDSLAPDQGDALKVDNMLDFVEQLRRQAATRVEDQGFLIAVDNAERLRDMDANVLPVLLRLQELTNLNLCVILLSQLPFEKFYNKTGLSEIVCLHLAQYNKAETQRILGSDFQQVRNQLLEQFAQDKKRLEICQEAVTEDFYNNYLNLFLSVFYKACRDVPELQLTARKCLSTYLEPVLDGTVDATDISRLWRHIAGPLRSALTQIYMRIEKPAEEVEDFTAIEDQSVRKLAQSLELPYYAKFLLIAAFLASHNAAKQDKRLFVKHHGKQRKRMQTVNARAKTTEKMSTTLGPKSFSIDRLLAIFYAILEEKVGLTCNLLSQISTLVHLNLLSFVSGEQNIMEGSARLQCTIGLEFVLQIGKVVGFNVRQYLCDFM
B4: Drosophila Orc4 (amino acid residues 1-459) (natural protein, UniProt Q9W102 1-459, looked up)
chain: MPEADRELVSIRRFLKERLQRDYTTLRGYAKERSNVRLLLQRTAEMGESNSLLLLGPRGSGKTTLINSVLADLLPNKSFGENTLIVHLDGNLHTDDRVALKSITVQMQLENAADGKVFGSFAENLAFLLQCLKAGGKHSKSVIFILEEFDLFCAHHNQTLLYNLFDVSQSAQAPICVLGVTCRLDVIELLEKRVKSRFSHRQVFLFPSLRRFEDYVDLCRDLLSLPTGNSLLLAAEKIYNLQNIQSGALYFSRNHFDPGEYGFSPRLRDAWNKQICKVLATQQARSTLQALHDFDISEAYLKNFLFRLVAHLRPQSPHITAEKMAAVGSQFEGDDKIELLCGLSVLELCLIIAIKHHSQIYDRDSFNFEIIYARFSKFAKVSTTMQAVERSIVLKAFEHLRIAELIMPLTGGAGGGVGKVQKEFEMHKLALTYSQIHHCMQRYQALPTEVAQWAQSSLI

Legend:
Assay in all cases: crystal structure
[1] = target: T1, Drosophila Orc3 (amino acid residues …)
[2] = target: B2
[3] = target: B4
[4] = target: B3

Binder	binding result [1]	binding result [2]	binding result [3]	binding result [4]
B1	binds	binds	–	–
B2	binds	–	binds	–
B3	binds	–	–	–
B4	–	–	–	binds
